The text below walks through data of the nanobody polyreactivity screen of Harvey et al. (2022).

This series can be described thus: yeast display, Sf9 membrane polyspecificity reagent, FACS + sequencing; frameworks hold sequencing errors. The method, boiled down: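 Nanobodies came from a synthetic yeast display library in Saccharomyces cerevisiae BJ5465, induced with galactose for 36–48 hours and stained for 1 hour at 4 °C with 10% biotinylated, detergent-solubilized Sf9 membrane reagent. Cells were enriched on streptavidin microbeads and then FACS-sorted, with low and high (top ~1%) gates set on anti-HA fluorescence for expression and streptavidin fluorescence for reagent binding. Each polyreactivity label reflects the gate a clone came from. Genes were amplified by colony PCR, sequenced by MiSeq 2 × 250 and filtered by CDR length.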
For “QVQLVESGGGLVQAGGSLRLSCAASGLIFVGYAMGWYRQSPGKERELVAAITSGGSTKYADSVKGRVTISRDNAKNTDYLQMNSLKPEDTAVYYCADSGCRNWWSARNYYWGQGTQVTVSS”, the “polyreactivity (PSR sort gate)” value is “low polyreactivity”.
As to “QVQLVESGGGLVQAGGSLRLSCAASGLIFVHYAMGWYRQAPGKEREFVAAITWSGGSKYYADSVKGRFTISRDNAKNTVYLQMNSLKPEDTAVYYCAVDGFRPGTASFGYWGQGTQVTVSS”, the “polyreactivity (PSR sort gate)” value is “low polyreactivity”.
With “QVQLVESGGGLVQAGGSLRLSCAASGLIFVQYVMGWYRQAPGKERELVAAITEDGNTYYADSVKGRFTISRDNAKNTVYLQMNSLKPEDTAVYYCNAVLRSYDFWTGYGYWGQGTQVTVSS” the entry was “low polyreactivity”.
“QVQLVESGGGLVQAGGSLRLSCAASGLIFVTNAMGGYRQAPGKERELVAAITRSGGSTYYADSVKGRFTISRDNAKNTVYLQMNSLKQEDTAVYYCATGFHYAYGYWGQGTQVTVSS”: the “polyreactivity (PSR sort gate)” value was “low polyreactivity”.
With “QVQLVESGGGLVQAGGSLRLSCAASGLIFVWYAMGWYRQAPGKEREVVAAITSRGGSTYYADSVKGRFTISRDNAKNTVYLQMNSLKPEDTAVYYCAKYVRYDLGDYWGQGTQVTVSS”, the “polyreactivity (PSR sort gate)” value is reported as “low polyreactivity”.
For “QVQLVESGGGLVQAGGSLRLSCAASGLIFVYNSMGWYRQAPGKERELVAGITSGGSTNYADSVKGRFTISRDNAKNTVYLQMNSLKPEDTAVYYCAAGYYDLYLWWGYDYWGQGTQVTVSS” the value was “high polyreactivity”; for “QVQLVESGGGLVQAGGSLRLSCAASGLIFWKYAMGWYRQAPGKEREFVAAITYGGGGTYYADSVKGRFTISRDNAKNTVYFQMNSLKPEDTAVYYWAKRRYYYKGRVSYRQYGYWGQGTQVTVSS”, “high polyreactivity”; for “QVQLVESGGGLVQAGGSLRLSCAASGLIFWYYAMGWYRQAPGKERELVAAINKIGGSTYYADSVKGRFTISRDNAKNTVYLQMNSLKPEDTAVYYCAADAPYYPVRRYYYWGQGTQVTVSS”, “low polyreactivity”.
With “QVQLVESGGGLVQAGGSLRLSCAASGLIFYDNMGWYRQAPGKERELVAAISSSGGSTSYADSVKGRFTISRDNAKNTVYLQMNSLKPEDTAVYYCAADQYYYWYTHQSIGYDYWGQGTQVTVSS” the entry was “low polyreactivity”; with “QVQLVESGGGLVQAGGSLRLSCAASGLIFYGNAMGWYRQAPGKERELVAAISRRGGRTYYADSVKGRFTISRDKAKNTVYLQMKSLKPEDTAVYYCAADVIYSGDYWGQGTQVTVSS”, “high polyreactivity”.
For “QVQLVESGGGLVQAGGSLRLSCAASGLIFYINAMGWYRQAPGKERELVAVISGGGSTNYADSVKGRFTISRDNAKNTVYLQMNSLKPEDTAVYYCNARRSHSYRHYDYWGQGTQVTVSS” the value was “low polyreactivity”.
With “QVQLVESGGGLVQAGGSLRLSCAASGLIFYKYAMGWYRQAPGKEREFVAAISGSGGSTYYADSVKGRFTISRDNAKNTVYLQMNSLKPEDTAVYYCAVRQRYGPARYDYWGQGTQVTVSS”, the “polyreactivity (PSR sort gate)” value is “high polyreactivity”.
With “QVQLVESGGGLVQAGGSLRLSCAASGLIFYKYAMGWYRQAPGKERELVAAITSGGSTNYADSVKGRFTISRDNAKNTVYLQMNSLKPEDTAVYYCNADYHPYLVVRWWYPPVDYWGQGNQVTVSS” the entry was “low polyreactivity”; with “QVQLVESGGGLVQAGGSLRLSCAASGLIFYRNALGWYRQEPGKERELVATISRRGGRTYYADSVKGRFTISRDNAKNTVYLQMNSLNPEDTAVYYCNADDYSSRGGYDSWGQGTQVTVSS”, “high polyreactivity”; with “QVQLVESGGGLVQAGGSLRLSCAASGLIFYRNAMGWYRQAPGKERELVAAISKNGGNTYYADSVKGRFTISRDNAKNTVFLQMNSLKTEDTAVYYCAARELYGPFGYWGQGTQVTVSS”, “high polyreactivity”.
Turning to “QVQLVESGGGLVQAGGSLRLSCAASGLIFYSNAMGWYRQAPGKERELVATISGSTGTTNYADSVKGRFTISRDNAKNTVYLQMNSLKPEDTAVYYCAAEWRRYEYADSWEYDYWGQGTQVTVSS”, the “polyreactivity (PSR sort gate)” value was “low polyreactivity”.
For “QVQLVESGGGLVQAGGSLRLSCAASGLIFYSYAMGWYRQAHAKERELVAAITGGGSTNYADSVKGRFTISRDNAKNTVYLQMNSLKPEDTAVYYCAAQAYVEGVYRYDYWGQGTQVTVSS” the value was “low polyreactivity”.
For “QVQLVESGGGLVQAGGSLRLSCAASGLIFYTYAMGWYRQAPGKERALVADINRSDGSTYYADSVKGRFTISRDNAKNTVYLQMNILKPEDTAVYYCAVVGPYYTRFGGRYYYWGQGTQVTVSS” the value was “low polyreactivity”; for “QVQLVESGGGLVQAGGSLRLSCAASGLIFYTYAMGWYRQAPGKERELVAAISYDGTRTYYADSVKGRFTISRDNAKNTVYLQMNSLKPEDTAVYYCTAAYRRGDDYWGQGTQVTVSS”, “high polyreactivity”.
With “QVQLVESGGGLVQAGGSLRLSCAASGLIFYYYAMGWYRQAPGKEREFVAAINSSGDSTYYADSVKGRFTISRDNAKNTVYLQMNSLKPEDTAVYYCNVDWYLHEYDYWGQGTQVTVSS” the entry was “low polyreactivity”; with “QVQLVESGGGLVQAGGSLRLSCAASGLIFYYYAMGWYRQAPGKEREFVAAISRSGGITRYADSVKGRFTISRDNAKNTVYLQMNSLKPEDTAVYYCAADAYPLTYDDYYWGQGTKVTVSS”, “high polyreactivity”; with “QVQLVESGGGLVQAGGSLRLSCAASGLIFYYYAMGWYRQAPGKERELVADIDRGGDTYYADSVKGRFTISRDNAKNTVYLQMNSLKPEDTAVYYGAAVDFYGYVPEFGYWGQGTQVTVSS”, “low polyreactivity”.
“QVQLVESGGGLVQAGGSLRLSCAASGLIFYYYTMGWYRQAPGKERELVAAITNGGRTNYADSVKGRFTISRDNAKNTVYLQMNSLKPEDTAVYYCNAVVHKYQRGPYYIKYDYWGQGTQVTVSS”: the “polyreactivity (PSR sort gate)” value is “high polyreactivity”.
For “QVQLVESGGGLVQAGGSLRLSCAASGLIFYYYVMGWYRQAPGKERELVARISTSGGSTYYADSVKGRFTISRDNAKNTVYLQMNSLKPEDTAVYYCAARGYRQYGWDGYWGQGTQVTVSS” the value was “low polyreactivity”.
With “QVQLVESGGGLVQAGGSLRLSCAASGLIIPFYAMGWYRQAPGKERELVAAISWSAGSTYYADSVKGRFTISRDNAKNTVYLQMNSLKPEDTADYYCATERNPADFYWGQGTQVTVSS” the entry was “low polyreactivity”.
For “QVQLVESGGGLVQAGGSLRLSCAASGLIIPFYAMGWYRQAPGKERELVAAISWSAGSTYYADSVKGRFTISRDNAKNTVYLQMNSLKPEDTAVYYCAATAYYYYDYDYWGQGTQVTVSS” the value was “low polyreactivity”; for “QVQLVESGGGLVQAGGSLRLSCAASGLIIRPYAMGWYRQAPGKERELVAAITSGGSTDYADSVKGRFTISRVNAKNSVYLQMYSRKPEDTAVYYCNGDIYPHDGYPWQGDYDYWGQGTQVTVSS”, “low polyreactivity”; for “QVQLVESGGGLVQAGGSLRLSCAASGLILGINAMGWYRQAPGKERELVAAISSSGGRTSYADSVKGRFTISRDNAKNTVYLQMNILKPEDTAVYYCAKRRTTYSHYDYWGQGTQVSVSS”, “low polyreactivity”.
For “QVQLVESGGGLVQAGGSLRLSCAASGLILPDYAMGWYRQAPGKERELVAAISESAASTYYADSVKGRFTISRDNAKNTVYLQMNSLKPEDTAVYYCAAEVWCYSWYYWYYDGEYYWGQGTQVTVSS”, the “polyreactivity (PSR sort gate)” value was “high polyreactivity”.
With “QVQLVESGGGLVQAGGSLRLSCAASGLILPYYAMGWYRQAPGKERELVAAISRTGGRTSYADSVKGRFTISRDNAKNTVYLQMNSLKPEDTAVYYCAAVGQSGGRRYDYWGQGTQVTVSS”, the “polyreactivity (PSR sort gate)” value was “high polyreactivity”.
For “QVQLVESGGGLVQAGGSLRLSCAASGLILPYYAMGWYRQAPGTERELVAAISRTAGRTSYADSVKGRFTISRDNAKNTVYLQMNSLKPEDTAVYYCAAVGQSGGRRYDYWGQGTQVTVSS” the value was “high polyreactivity”; for “QVQLVESGGGLVQAGGSLRLSCAASGLILSDYAMGWYRQAPGKERELVATITSVGTTKYADSVKGRVTISRDNAKKTVYVQLHSLKPEDTAVYYCAAEFIRGYGESYDYWGQGTQVTVSS”, “low polyreactivity”.
With “QVQLVESGGGLVQAGGSLRLSCAASGLILSGYTMGWYRPAPGKERELVAAISRSGGRTYYADSVKGRFTISRDNAKNTVYLQMNSLKPEDTAVYYCAAAKRTWRSDYWGQGTQVTVSS” the entry was “high polyreactivity”.
Regarding “QVQLVESGGGLVQAGGSLRLSCAASGLILSSNAMGWYRQAPGKERELVAAITWDGDRTYADSVKGRFTISRDNAKNTVYLQMNSLKPEDTAVYYCAADKQYYWYDWSYVYWGQGTQVTVSS”, the “polyreactivity (PSR sort gate)” value is recorded as “low polyreactivity”.
With “QVQLVESGGGLVQAGGSLRLSCAASGLILSSNARGWYRQAPGKETELVAAITWDGDRTYADSVKGRFTISRDNAKNTVYLQMNSLKPEDTAVYYCAAYPYYYYGYDYWGQGTQVTVSS” the entry was “low polyreactivity”; with “QVQLVESGGGLVQAGGSLRLSCAASGLILYYYAMGWYRQAPGKERELVAAISRRDGDTYYADSVKGRFTISRDNAKNTVYLQMNSLKPEDTAVYYCAAERRWSWVVRDDYWGQGTQVTVSS”, “low polyreactivity”.
With “QVQLVESGGGLVQAGGSLRLSCAASGLISYAYAMGWYRQAPGKERELVAAIRSSGSTYYADSVKGRFTISLDNAKNTVYLQMNSLKPEDTAVYYCAKRNPIKYYGGGYWGQGTQVTVSS” the entry was “high polyreactivity”.
With “QVQLVESGGGLVQAGGSLRLSCAASGLIVVHYAMGWYSQAPGKVREFVAAITWSGGSTYYADSVKGRFTISRDNAKNTVYLQMNSLKPEDTAVYYCAVDGFRPGTASFGYWGQGTQVTVSS” the entry was “low polyreactivity”; with “QVQLVESGGGLVQAGGSLRLSCAASGLIVWYYAMGWYRQAPGKERELVATITSRGGSTYYADSVKGRFTISRDNAKNTVYLQMNSLKPEDTAVYYCARENPGDSYYDYWGQATQVTVSS”, “low polyreactivity”; with “QVQLVESGGGLVQAGGSLRLSCAASGLIYFYAMGWYRQEPGKERELVAAISSSGGRTYYADSVKGRFTISRDNAKNTVYLQMNSLKPEDTAVYYCAVVSSHYKGPGRNGYDYWGQGTQVTVSS”, “high polyreactivity”.
Take “QVQLVESGGGLVQAGGSLRLSCAASGLIYFYYDMGWYRQAPGKERELVAAISQRGGSTYYADSVKGRFTISRDNAKNTVYLQMNSLKPEDTAVYYCNAYSQRYGYYYWGQGTQVTVSS”: the “polyreactivity (PSR sort gate)” value is given as “high polyreactivity”.
